Substitutions are numbered along the chain they refer to. Names and notes keep the numbering of the source.
B1: S100A4 (metastasin), wild type (natural protein)
chain: not shown
B2: Fl-C-ERMAD^T567D (fluorescently labeled phosphomimetic C-ERMAD mutant) (domain or fragment, human)
chain: CKRITEAEKNERVQRQLLTLSSELSQARDENKRTHNDIIHNENMRQGRDKYKDLRQIRQGNTKQRIDEFEAL
modifications: fluorescent label on the N-terminal cysteine (Alexa Fluor 568 C5 maleimide by the methods for the C-ERMAD fragments)
notes: cysteine cloned before Lys516, carries the fluorescent label (as for the C-ERMAD); human ezrin C-ERMAD with Thr567Asp; limits are those printed for the parent C-ERMAD (Lys516-Leu586); source: E. coli Rosetta(DE3), purified, fluorescently labeled; not shown: GST, N-terminal, cleaved
B3: S100P (natural protein, UniProt P25815 1-95, looked up)
chain: MTELETAMGMIIDVFSRYSGSEGSTQTLTKGELKVLMEKELPGFLQSGKDKDAVDKLLKDLDANGDAQVDFSEFIVFVAAITSACHKYFEKAGLK
B4: Fl-C-ERMAD (fluorescently labeled ezrin C-ERMAD, Cys-Lys516-Leu586) (domain or fragment, human)
chain: B2 chain with D53T
modifications: Alexa Fluor 568 C5 maleimide on the N-terminal cysteine (the same paragraph also calls the peptides fluorescein-conjugated)
notes: cysteine cloned before Lys516, carries the fluorescent label; human ezrin C-ERMAD, Lys516-Leu586; also called fluorescently-labeled C-ERMAD; not shown: GST, N-terminal, cleaved
B5: Ezrin C-ERMAD (Cys-Lys516-Leu586), unlabeled (domain or fragment, human)
chain: B2 chain with D53T
notes: cysteine cloned before Lys516 for fluorescent labeling; human ezrin C-ERMAD, Lys516-Leu586; also called unlabeled C-ERMAD; not shown: GST, N-terminal, cleaved

Key:
Details in all cases: both partners purified
[1] = molecular target: T1, Ezrin F2 lobe of the N-ERMAD (Glu87-Glu199) (human, UniProt P15311 87-199); assay: other fluorescence titration; steady-state tryptophan fluorescence; 2 μM ezrin construct titrated with S100 protein; 20 mM HEPES pH 7.5, 150 mM NaCl, 0.5 mM TCEP, 1 mM CaCl2; 25°C; quadratic binding equation
[2] = molecular target: T1, Ezrin F2 lobe of the N-ERMAD …; assay: as above; remark: listed apart in the source
Full-length human ezrin [3] = molecular target: T2, Full-length human ezrin (human, UniProt P15311 1-586); assay: as above
[4] = molecular target: T3, Full-length human ezrin, phosphomimicking mutant T567D (human, UniProt P15311 1-586, Thr567Asp); assay: as above
[5] = molecular target: T4, Ezrin N-ERMAD (N-terminal ERM domain, FERM domain, Met1-Lys296) (human, UniProt P15311 1-296); assay: as above
[6] = molecular target: T1, Ezrin F2 lobe of the N-ERMAD …; assay: stopped-flow tryptophan fluorescence kinetics; 1 μM (post-mixing) N-ERMAD or F2 lobe mixed with S100A4 at different concentrations; 20 mM HEPES pH 7.5, 150 mM NaCl, 0.5 mM TCEP, 1 mM CaCl2; 25°C; Kd from amplitudes (quadratic), K1, k2, k-2 from hyperbola of kobs (induced fit)
[7] = molecular target: T4, Ezrin N-ERMAD (N-terminal ERM domain, …); assay: as above
[8] = molecular target: T1, Ezrin F2 lobe of the N-ERMAD …; assay: fluorescence polarisation; competitive FP; 50 nM Fl-NMIIA complexed with 4 μM S100A4 dimer titrated with ezrin constructs; competition binding equation; triplicates
Full-length human ezrin [9] = molecular target: T2, Full-length human ezrin; assay: as above
[10] = molecular target: T3, Full-length human ezrin, …; assay: as above
[11] = molecular target: T4, Ezrin N-ERMAD (N-terminal ERM domain, …); assay: as above
[12] = molecular target: T4, Ezrin N-ERMAD (N-terminal ERM domain, …); assay: fluorescence polarisation; direct FP; 50 nM fluorescent tracer (Fl-C-ERMAD variants or Fl-NMIIA) titrated with S100 proteins or N-ERMAD; 20 mM HEPES pH 7.5, 150 mM NaCl, 0.1 mM TCEP, 1 mM CaCl2, 0.05% Tween-20; triplicates; quadratic binding equation
[13] = molecular target: B1; assay: as above
[14] = molecular target: T4, Ezrin N-ERMAD (N-terminal ERM domain, …); assay: other fluorescence titration; steady-state tryptophan fluorescence; 2 μM ezrin construct titrated with S100 protein; 20 mM HEPES pH 7.5, 150 mM NaCl, 0.5 mM TCEP, 1 mM CaCl2; 25°C; quadratic binding equation; remark: listed apart in the source
[15] = molecular target: T4, Ezrin N-ERMAD (N-terminal ERM domain, …); assay: circular dichroism; far-UV CD difference spectra of complexes; 10 mM Tris pH 7.5, 150 mM NaCl, 0.1 mM TCEP, 1 mM CaCl2; 15 μM N-ERMAD + 50 μM S100A4 dimer, 25 μM F2 lobe + 25 μM S100A4 dimer, 25 μM C-ERMAD + 100 μM S100A4 dimer or 30 μM N-ERMAD; BeStSel deconvolution
[16] = molecular target: B1; assay: fluorescence polarisation; competitive FP; 50 nM Fl-NMIIA complexed with 4 μM S100A4 dimer titrated with ezrin constructs; competition binding equation; triplicates

## B1
[1]
  stoichiometry N: 1 S100A4 dimer per F2 lobe
[2]
  Kd: < 100 nM
Full-length human ezrin [3]
  Kd: 175000 nM
[4]
  Kd: 158000 nM
[5]
  Kd: 2200 nM
[6]
  Kd: 170 nM
[7]
  Kd: 3900 nM
[8]
  Kd: 120 nM
Full-length human ezrin [9]
  Kd: 92100 nM
[10]
  Kd: 72200 nM
[11]
  Kd: 1100 nM

## B2
[12]
  binding result: binds
[13]
  Kd: 2700 nM

## B3
[14]
  Kd: 1700 ± 300 nM

## B4
[12]
  Kd: 8.6 ± 0.7 nM
[13]
  Kd: 3400 nM

## B5
[15]
  binding result: binds
[16]
  Kd: 5300 nM

From PMC5426754, “Ezrin interacts with S100A4 via both its N- and C-terminal domains” (PLoS ONE, 2017)
